Reference: US20250197503A1, “ANTI-HUMAN PD-Ll AND TLR7 DOUBLE-TARGETING NANOBODY CONJUGATE DRUG AND USE THEREOF IN RESISTING TUMOR” (SHANGHAI INSTITUTE OF MATERIA MEDICA , CHINESE ACADEMY OF …, priority 2022, published 2025)

Molecular target: human PD-L1 (human) (UniProt Q9NZQ7)
Assay: FACS blocking of human PD-1/PD-L1 binding

Sequence of human PD-L1 (human) (Q9NZQ7 19-290): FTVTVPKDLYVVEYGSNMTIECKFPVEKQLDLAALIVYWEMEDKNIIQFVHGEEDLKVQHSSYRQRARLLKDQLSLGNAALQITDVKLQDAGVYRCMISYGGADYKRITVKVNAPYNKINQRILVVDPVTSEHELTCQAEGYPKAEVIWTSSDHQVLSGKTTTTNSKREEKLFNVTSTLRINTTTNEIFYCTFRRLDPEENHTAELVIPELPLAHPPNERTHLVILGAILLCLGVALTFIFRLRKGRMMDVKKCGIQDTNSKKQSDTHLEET

IC50: 0.208 µg/mL
Substance: KN035
